We go through one molecule from patent publication US20110052551A1, “CARDIAC MYOCYTE MORPHOGENIC COMPOSITIONS AND METHODS OF USE THEREFOR” (priority 2008, published 2011).

What all share (assay type): cell-based, mice
Test [1] relates to unfractionated BMMNCs. As to the kind of experiment: Immunocytochemistry for Oct-4-positive BMMNCs. The settings on record: 21 days, 150 ng/ml. As for the experimental part: Additionally, to assess the influence of Wnt3a on cellular differentiation, unfractionated BMMNCs were cultured separately in the presence of 150 ng/ml of recombinant Wnt3a protein under the same conditions used to culture unfractionated BMMNCs, using pcDNA3/293 cells containing the empty vector as controls (see FIG. 9A).
Immunocytochemistry. Cells were fixed on glass cover-slides with 4% paraformaldehyde for 20 minutes at 4° C. Cells were washed four times and permeabilized with BD PERM/WASH™ (containing saponin; BD Biosciences, San Jose, Calif., United States of America). For immunostaining, separate preparations of BD PERM/WASH™ containing primary monoclonal antibodies against either cardiac troponin T (cTnT; Santa Cruz Biotechnology, Santa Cruz, Calif., United States of America) or cardiac myosin heavy chain (cMyHC; Novus Biologicals, Inc., Littleton, Colo., United States of America) or connexin-43 or Oct-4 were prepared; all primary antibodies, save cMyHC, were purchased from Santa Cruz Biotechnology. Each preparation also contained primary monoclonal antibodies against nestin, glial fibrillary acidic protein (GFAP), CD11B, Gr-1 (myeloid lineage markers), the CD45 epitope, myogenin […]

Test [2] relates to unfractionated BMMNCs. As to the kind of experiment: Assessment of cardiac differentiation by immunocytochemistry (cMyHC, cTnT). The settings on record: 21 days of culture. The source says: Induction of differentiation. To assess the influence of ectopic expression of Wnt11 on BMMNC differentiation, Wnt11 conditioned medium (Wnt11-CM) was generated. Specifically, unfractionated BMMNCs were co-cultured with Wnt11-expressing HEK-293 cells (Wnt11/293-2; designated as Wnt11-CM), under the same conditions used to culture BMMNCs. In order to achieve strict separation of cell types during co-culture experiments, BMMNC and Wnt11/293 cells were separated into upper and lower chambers of a TRANSWELL® co-culture system. Wnt11/293-2 or pcDNA3/293 (empty vector) cells (the controls in this experiment) were cultured in the upper chamber on the polyester (PET) membrane of a 24 mm TRANSWELL® insert, and unfractionated BMMNCs were cultured in the lower chamber as described above.
Moreover, to eliminate the possibility of cell fusion or cell-cell contact as a requirement for Wnt11-mediated effects, a membrane pore size of 0.4 μm was chosen, thus preventing egression of Wnt11/293-2 cells to the lower compartment that contained BMMNCs. Of note, TRANSWELL® inserts were maintained separately without cells until day 10 of BMMNC attachment. […]
Assessment of cardiac differentiation. For quantitative assessment of cardiomyocytic differentiation, an average of 2400 cells/plate were counted. Multiple fields from all 4 quarters of the plate were systematically evaluated. […]

The test system of test [3] is unfractionated BMMNCs. Description: Immunocytochemistry for pan-hematopoietic marker CD45. The settings on record: after 21 days of culture; percent of total cells. The method, then:
Immunocytochemistry. Cells were fixed on glass cover-slides with 4% paraformaldehyde for 20 minutes at 4° C. Cells were washed four times and permeabilized with BD PERM/WASH™ (containing saponin; BD Biosciences, San Jose, Calif., United States of America). For immunostaining, separate preparations of BD PERM/WASH™ containing primary monoclonal antibodies against either cardiac troponin T (cTnT; Santa Cruz Biotechnology, Santa Cruz, Calif., United States of America) or cardiac myosin heavy chain (cMyHC; Novus Biologicals, Inc., Littleton, Colo., United States of America) or connexin-43 or Oct-4 were prepared; all primary antibodies, save cMyHC, were purchased from Santa Cruz Biotechnology. Each preparation also contained primary monoclonal antibodies against nestin, glial fibrillary acidic protein (GFAP), CD11B, Gr-1 (myeloid lineage markers), the CD45 epitope, myogenin
These preparations were then applied separately (i.e., mixtures either with cTnT or with cMyHC) or, for co-immunostaining experiments, in combinations to cells for 16 hours at 4° C. and 37° C. for the final hour. […]

Entries after “also recorded” stand apart in the source; their conditions may differ.

B1: Wnt3a: recombinant Wnt3a protein, canonical Wnt, used at 150 ng/ml (protein, UniProt P56704 19-352, looked up)
Protein Wnt-3a: SYPIWWSLAVGPQYSSLGSQPILCASIPGLVPKQLRFCRNYVEIMPSVAEGIKIGIQECQHQFRGRRWNCTTVHDSLAIFGPVLDKATRESAFVHAIASAGVAFAVTRSCAEGTAAICGCSSRHQGSPGKGWKWGGCSEDIEFGGMVSREFADARENRPDARSAMNRHNNEAGRQAIASHMHLKCKCHGLSGSCEVKTCWWSQPDFRAIGDFLKDKYDSASEMVVEKHRESRGWVETLRPRYTYFKVPTERDLVYYEASPNFCEPNPETGSFGTRDRTCNVSSHGIDGCDLLCCGRGHNARAERRREKCRCVFHWCCYVSCQECTRVYDVHTCK
Take B1: the “number of Oct-4-positive BMMNCs compared with untreated control” value in test [1] is “marked increase; also recorded: a much greater number”. Moreover, in test [2], the “expression of cardiac-specific contractile proteins (cTnT, cMyHC)” value is “not observed”. For the same molecule, in test [3], the “cells positive for CD45” value is given as 69.9±2.9%.
